Measurements reported in patent US20230374090A1 (SURROZEN OPERATING, published 2023).
Changes are numbered by the printed parent chain.

How the values were obtained:
human ASGR1 = target: T1, human ASGR1 (human, UniProt P07306 62-291, limits assumed); assay: kinetic binding to human ASGR1, IgG1 format; method and unit inferred
T1 construct: also called asialoglycoprotein receptor 1; hASGR1
T1 sequence (looked up): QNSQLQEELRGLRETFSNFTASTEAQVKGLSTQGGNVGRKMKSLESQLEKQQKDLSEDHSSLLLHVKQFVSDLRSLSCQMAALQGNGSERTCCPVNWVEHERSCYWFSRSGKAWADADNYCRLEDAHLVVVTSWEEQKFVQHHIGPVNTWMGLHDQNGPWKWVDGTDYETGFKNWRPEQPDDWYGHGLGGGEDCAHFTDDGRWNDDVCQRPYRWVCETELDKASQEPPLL

[1] = target: T2, HuASGR1-CBD_P07306_154-291 (human); assay: size-exclusion chromatography of the mixed proteins (1.1:1 molar ratio)
T2 construct: also called human ASGR1-CBD
T2 chain: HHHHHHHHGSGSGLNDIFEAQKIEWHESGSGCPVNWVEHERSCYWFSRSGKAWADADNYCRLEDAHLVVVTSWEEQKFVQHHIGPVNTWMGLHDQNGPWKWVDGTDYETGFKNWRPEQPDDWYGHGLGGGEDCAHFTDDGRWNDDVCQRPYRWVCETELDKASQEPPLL
Method: Purified […] and 8M24 Fab were mixed at 1.1:1 molar ratio (little excess of the HuASGR1-CBD), and incubated with carboxy-peptidase A and B at a w/w ratio of 100:1 for over-night at 4° C. Complex formation was confirmed by observation of a single-major peak on SuperdexS200 Increase (10/300 GL) column pre-equilibrated in HBS. Fractions containing complexes were further checked by SDS-PAGE and concentrated to ˜20 mg/mL for crystallization screens. […] 96-well plate crystal screening experiments were periodically monitored manually via a DiscoveryV20 stereomicroscope (Zeiss USA), and crystals were frozen for data collection by plunging into liquid nitrogen in the presence of various cryo-protectants (typically 15 to 30% v/v of glycerol or ethyleneglycol). […] Structure of HuASGR1-CBD:8M24 complex was determined by molecular replacement method using Phaser [Phaser crystallographic software. McCoy A J, Grosse-Kunstleve R W, Adams P D, Winn M D, Storoni L C, and Read R J. (2007) J Appl Crystallogr 40, 658-674] with poly-alanine model of published structure of ASGR1-CBD [PDB code: SJPV; Efficient Liver Targeting by Polyvalent Display of a Compact Ligand for the Asialoglycoprotein Receptor. […]

B1: 8M24 humanized L1H1 (antibody, V domains shown)
VH: EVQLVQSGAEVKKPGSSVKVSCKASGYTFTNYGINWVRQAPGQGLEWMGEIFPRSDNTFYAQKFQGRVTITADKSTSTAYMELSSLRSEDTAVYYCARKGRDYGTSHYFDYWGQGTTVTVSS
VL: DIQMTQSPSSLSASVGDRVTITCRISENIYSNLAWYQQKPGKAPKLLIYAAINLADGVPSRFSGSGSGTDFTLTISSLQPEDFATYYCQHFWGTPFTFGQGTKLEIK
notes: also called 8M24 humanized 1
Kd (human ASGR1): 0.00573 nM

B2: 8M24 humanized L2H2 (antibody, V domains shown)
VH: B1 VH with M48I, V68A, I70L, V118L
VL: B1 VL with I48V, A84G
notes: also called 8M24 humanized 2
Kd (human ASGR1): 0.11 nM

B3: 8M24 Fab (L1H1 version) (Fab, V domains shown)
VH: B1 VH
VL: DIQMTQSPSSLSASVGDRVTITCRISENIYSNLAWYQQKPGKAPKLLIYAAINLADGVPSRFSGSGSGTDFTLTISSLQPEDFATYYCQHFWGTPFTFGQGTKLEIKR
notes: Heavy chain entry includes a C-terminal hexa-histidine tag; also called 8M24L1 Light-chain + 8M24H1 Heavy-chain; SZP19057+19056
binding result [1]: binds
